Values of other authors, collected in PMC6292179.

Target: IL-18BP (Homo sapiens) (UniProt O95998)
Sequence (O95998 31-194): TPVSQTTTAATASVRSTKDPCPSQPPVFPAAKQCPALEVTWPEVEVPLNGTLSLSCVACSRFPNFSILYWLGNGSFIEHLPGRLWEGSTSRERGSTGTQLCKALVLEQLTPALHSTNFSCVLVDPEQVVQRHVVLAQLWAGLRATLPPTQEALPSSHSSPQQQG

Chain of IL-18 (Q14116 37-193): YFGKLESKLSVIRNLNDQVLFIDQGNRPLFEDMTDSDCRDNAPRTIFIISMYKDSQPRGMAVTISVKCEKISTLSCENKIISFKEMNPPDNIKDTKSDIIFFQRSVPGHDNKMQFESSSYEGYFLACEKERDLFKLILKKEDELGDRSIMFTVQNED

IL-18 (from UniProt Q14116)
Kd: 0.4 nM
